From paper PMC5344537
Several values for one entry are separate records, joined by “and”; a condition that tells them apart may be missing. Identical values can stand only once.

What was measured:
[1] = biological target: intercellular adhesion molecule-1 (ICAM-1) of epithelial cells (human (endogenous in primary tonsil, cervical and foreskin keratinocytes)) (UniProt P05362)
[2] = biological target: intercellular adhesion molecule-1 (ICAM-1) of epithelial cells (human (endogenous in primary tonsil, cervical and foreskin keratinocytes)) (UniProt P05362); remark: listed apart in the source

Sequence of UniProt P05362 (P05362 28-532): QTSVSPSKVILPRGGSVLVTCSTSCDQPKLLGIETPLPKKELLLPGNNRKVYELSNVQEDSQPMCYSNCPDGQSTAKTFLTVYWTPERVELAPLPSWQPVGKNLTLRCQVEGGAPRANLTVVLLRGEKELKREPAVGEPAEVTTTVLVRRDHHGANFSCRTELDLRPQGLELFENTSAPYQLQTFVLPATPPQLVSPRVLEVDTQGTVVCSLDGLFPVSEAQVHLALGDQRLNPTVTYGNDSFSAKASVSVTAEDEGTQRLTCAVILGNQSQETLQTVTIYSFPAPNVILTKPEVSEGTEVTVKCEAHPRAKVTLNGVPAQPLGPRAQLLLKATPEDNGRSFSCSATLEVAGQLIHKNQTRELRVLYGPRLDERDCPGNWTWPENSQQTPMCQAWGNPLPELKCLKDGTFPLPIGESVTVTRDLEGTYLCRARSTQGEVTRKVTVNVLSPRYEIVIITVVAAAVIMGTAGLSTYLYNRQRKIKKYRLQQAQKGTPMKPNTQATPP

Substance: lymphocyte receptor function-associated antigen-1 (LFA-1) (from UniProt P20701 26-1170; P05107 23-769) (complex)
- reduction of HIV-1 SF33 spread from AP and BL surfaces of polarized tonsil epithelial cells to activated PBMC, in the presence of antibodies against ICAM-1 and LFA-1 (ELISA p24 of PBMC after 7 days) [1]: 65 to 70%
- reduction of HIV-1 SF33 spread from AP and BL membranes of polarized cervical and foreskin epithelial cells to activated PBMC, in the presence of antibodies to LFA-1 and ICAM-1 (ELISA p24) [2]: 40% and 50%
- reduction of spread of R5-tropic HIV-1 SF170 from polarized cervical and foreskin epithelial cells to CD4+ T lymphocytes, in the presence of antibodies to LFA-1 and ICAM-1 (ELISA p24) [2]: 70%
- reduction of spread of X4-tropic HIV-1 92UG029 from polarized cervical and foreskin epithelial cells to CD4+ T lymphocytes, in the presence of antibodies to LFA-1 and ICAM-1 (ELISA p24) [2]: 50%
